This test concerns BirA*-FLAG-GATAD1 variants in Flp-In-293 cells. The test is described as follows: BioID proximity labelling of full-length GATAD1 variants (SILAC). The note with it: GATAD1 WT vs S102P, significant proteins only; for Log2_Ratio.H.L.normalized.WT_S102P_forward: forward experiment (label swap performed, sign inverted against the H/L ratio); for Log2_Ratio.H.L.normalized.WT_S102P_forward / Log2_Ratio.H.L.normalized.WT_S102P_reverse: log2 of normalized H/L ratio; for Ratio.H.L.normalized.WT_S102P_forward: forward experiment; for Log2_Ratio.H.L.normalized.WT_S102P_reverse / Ratio.H.L.normalized.WT_S102P_reverse: reverse experiment. Type of test: cell-based, human. In outline:
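Tetracycline-inducible Flp-In-293 T-REx lines expressing N-terminal BirA*-FLAG GATAD1 variants (WT, S102P, S102D, S102A) were SILAC-labelled, induced with 1 μg/mL tetracycline for 24 h and given 50 μM biotin overnight. Streptavidin-enriched proteins were trypsin-digested on-bead and analysed by LC-MS/MS. Label-swapped log2 SILAC ratios beyond ±1 defined differential proteins (n = 2).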

B1: SAP30BP (protein, UniProt Q9UHR5 1-308, looked up)
SAP30-binding protein: MAGKKNVLSSLAVYAEDSEPESDGEAGIEAVGSAAEEKGGLVSDAYGEDDFSRLGGDEDGYEEEEDENSRQSEDDDSETEKPEADDPKDNTEAEKRDPQELVASFSERVRNMSPDEIKIPPEPPGRCSNHLQDKIQKLYERKIKEGMDMNYIIQRKKEFRNPSIYEKLIQFCAIDELGTNYPKDMFDPHGWSEDSYYEALAKAQKIEMDKLEKAKKERTKIEFVTGTKKGTTTNATSTTTTTASTAVADAQKRKSKWDSAIPVTTIAQPTILTTTATLPAVVTVTTSASGSKTTVISAVGTIVKKAKQ
As for B1, the Log2_Ratio.H.L.normalized.WT_S102P_forward turned out to be 1.673, the Ratio.H.L.normalized.WT_S102P_forward was 0.3135, the Log2_Ratio.H.L.normalized.WT_S102P_reverse is reported as 1.201 and the Ratio.H.L.normalized.WT_S102P_reverse worked out at 2.2985.

B2: HN1L (protein, UniProt Q9H910 1-190, looked up)
Jupiter microtubule …: MFQVPDSEGGRAGSRAMKPPGGESSNLFGSPEEATPSSRPNRMASNIFGPTEEPQNIPKRTNPPGGKGSGIFDESTPVQTRQHLNPPGGKTSDIFGSPVTATSRLAHPNKPKDHVFLCEGEEPKSDLKAARSIPAGAEPGEKGSARKAGPAKEQEPMPTVDSHEPRLGPRPRSHNKVLNPPGGKSSISFY
In the case of B2, the Log2_Ratio.H.L.normalized.WT_S102P_forward worked out at 1.324, the Ratio.H.L.normalized.WT_S102P_forward was 0.3994, the Log2_Ratio.H.L.normalized.WT_S102P_reverse was determined as 1.259 and the Ratio.H.L.normalized.WT_S102P_reverse is 2.3935.

The values are drawn from paper PMC11009412, “Pathogenic mutations of human phosphorylation sites affect protein–protein interactions” (Nature Communications, 2024).
